For one assay, the system named is CD4-HNF/GFP-T ES cells. Nature of the assay: Activin A / Wnt3a induction of ES derived primitive streak like cells in serum free culture, with pathway inhibitors. The following applies: for development of GFP^+ CD4^+ cells with either inducer (activin or Wnt): DKK1 100 ng/ml or SB-431542 6 uM. It is filed as cell-based, mouse. Here is the method: FIGS. 34A, 34B and 34C depict ES cells differentiated in serum free conditions with Activin A Wnt3a and/or inhibitors of these pathways. ES cells were cultured in serum free media for two days then trypsinized to obtain a single cell population. These cells were then reaggregated with the indicated conditions. At day six, the EBs were plated on matrigel coated dishes in serum free media.
Liu et. al. (1999) Nat. Genet. 22: 361-4. […] Activin stimulation leads to high levels of CD4 expression that persist after loss of GFP-Bry expression at day 6. […] Wnt does however stimulate expression of the posterior primitive streak markers HoxBI and Tbx6, while activin only induces Tbx6. […] At day 6, EBs that were stimulated with either activin or Wnt3a were plated on matrigel in serum free media to allow further development.
Considering that Wnt stimulation induces nodal and activin treatment induces Wnt3 (FIG. 34B), it is unknown whether activin/nodal signaling or Wnt Signaling alone can induce primitive streak formation or whether both factors are required together. CD4-HNF/GFP-T ES cells were induced with either activin or Wnt in conjunction with specific inhibitors of these pathways. DKK1 was used to inhibit Wnt signaling while the small molecule inhibitor SB-431542 (SB) was used to block Nodal/TGFβ signaling. DKK1 functions by binding the Wnt co-receptors, LRP5 and LRP6, which are essential for activation of the βcatenin signaling pathway. […] Inman et. al. (2002) MoI. Pharmacol. 62: 65-74. […] Therefore, to induce mesoderm and endoderm germ layers and their derivative tissues, both activin/Nodal and Wnt signals are required initially.

The test system of another assay is ALK4, 5, and 7. The following applies: Inman et al. (2002); cited from earlier work.
A further assay deals with EBs (brachyury^+ cells). Nature of the assay: BMP4 added to developing EBs in serum free cultures, GFP/Flk-1 expression. The assay is classed as cell-based, mouse. Particulars: BMP4 20 ng/ml. Here is the method:
FIG. 8B depicts expression of brachyury and Flk-1 on cell populations generated from GFP+/Flk-1^− cells cultured for 20 hours under the indicated conditions.
To assess the role of serum in the development of brachyury^+ cells, EBs were differentiated the absence of serum. EBs did develop under these conditions, although they were somewhat smaller than those found in normal conditions. […] Significant numbers of GFP^+/Flk-1^− and GFP^+/Flk-1^+ cells did develop when serum was added to the cultures. […] As a first step in identifying factors that might play a role in this process, BMP4 (20 ng/ml) was added to the developing EBs in the serum free cultures. […] To determine if BMP4 could induce GFP^+/Flk-1^+ from GFP^+/Flk-1^− cells that were induced in the presence of serum, GFP^+/Flk-1^− cells were isolated from EBs differentiated for three days in the presence of serum. These cells were reaggregated in medium alone, in medium with serum or in medium with BMP4. […] As expected, the same population generated a large GFP^+/Flk-1^+ population when serum was added to the cultures. Consistent with the findings in the primary differentiation cultures, BMP4 was unable to induce the development of significant numbers of GFP^+/Flk-1^+ cells from the cultured GFP^+/Flk-1^− cells.

The test system of assay [1] is GFP^+ hCD4^med cells from CD4-HNF/GFP-T ES cells. As to the kind of experiment: Reaggregation of sorted GFP^+ hCD4^med cells in serum free media with DKK1 and/or activin. The assay is classed as cell-based, mouse. How it is done:
FIGS. 35A and 35B depict, the effects of DKK1 and activin on EB differentiation. EBs differentiated and sorted as in FIG. 32 for GFP^+ hCD4^med were allowed to reaggregate in serum replacement containing media alone or with the addition of human DKK1 100 ng/ml, activin 100 ng/ml, or both factors together. […] FIG. 35B depicts endodermal gene expression by RT PCR. The sorted populations were treated as indicated above for 2 days, then plated on matrigel in serum free media without factors added. Gene expression was analyzed an additional 5 days after plating.
Nodal, a key molecule involved in mesoderm/endoderm induction in vivo, signals through the same receptors as activin. It is also known that Nodal as well as inhibitors for Wnt signaling are expressed preferentially in or around the anterior primitive streak. Considering that the endoderm forms from the anterior primitive streak, it is possible that nodal/activin signaling in combination with inhibition of Wnt signals induces endoderm formation. To test this hypothesis, CD4-HNF/GFP-T ES cells were differentiated for 3.25 days in serum and GFP^+ hCD4^med cells were sorted and reaggregated in serum free media with no factor, DKK1 (Wnt inhibitor), activin, or activin and DKK1. The effect of these culture conditions on hCD4-HNF3β and GFP-Bry levels were analyzed by flow cytometry (FIG. 35A). With serum free media alone, hCD4 expression was lost after 1 day reaggregation. […] To further test this idea, sorted cells reaggregated for two days in the culture conditions above were washed with serum free media without factors and plated onto martrigel in serum free media. After 5 days, the cultures were harvested and gene expression determined by RT PCR. […] These culture conditions have the potential to allow the large scale production of endodermal derived tissues such as the pancreas and liver.

For `NC(=O)c1ccc(-c2nc(-c3ccc4c(c3)OCO4)c(-c3ccccn3)[nH]2)cc1` [SB-431542], the “development of GFP^+ CD4^+ cells with either inducer (activin or Wnt)” value in the assay with CD4-HNF/GFP-T ES cells is recorded as “completely blocked”. In the assay on ALK4, 5, and 7, the “effect on BMP signaling” value was “does not, however, block BMP signaling”; the receptor specificity entry is “specific inhibitor of the receptors ALK4, 5, and 7”.

B1: BMP4: growth factor purchased from R&D systems (protein, UniProt P12644 293-408, looked up)
Bone morphogenetic protein 4: SPKHHSQRARKKNKNCRRHSLYVDFSDVGWNDWIVAPPGYQAFYCHGDCPFPLADHLNSTNHAIVQTLVNSVNSSIPKACCVPTELSAISMLYLDEYDKVVLKNYQEMVVEGCGCR
Take B1: the “development of GFP^+/Flk-1^+ population” value in the assay on EBs (brachyury^+ cells) (serum free primary differentiation cultures) is reported as “did not support the development of the GFP^+/Flk-1^+ population”. Besides, in the assay on EBs (brachyury^+ cells) (serum free, within 3 days of differentiation), the “induction of brachyury^+ cells” value was “induce a significant population of brachyury^+ cells”.

B2: DKK1: Wnt signaling inhibitor binding the Wnt co-receptors LRP5 and LRP6 (protein, UniProt O94907 32-266, looked up)
Dickkopf-related protein 1: TLNSVLNSNAIKNLPPPLGGAAGHPGSAVSAAPGILYPGGNKYQTIDNYQPYPCAEDEECGTDEYCASPTRGGDAGVQICLACRKRRKRCMRHAMCCPGNYCKNGICVSSDQNHFRGEIEETITESFGNDHSTLDGYSRRTTLSSKMYHTKGQEGSVCLRSSDCASGLCCARHFWSKICKPVLKEGQVCTKHRRKGSHGLEIFQRCYCGEGLSCRIQKDHHQASNSSRLHTCQRH
Take B2: in assay [1] (2 days treatment, then 5 days on matrigel without factors), the “endoderm gene expression by RT PCR (pancreas, liver, intestine genes)” value is given as “None of these genes were detected”. For the same molecule, in assay [1] (after 1 day reaggregation, DKK1 100 ng/ml, activin 100 ng/ml), the “hCD4 (HNF3β) level by flow cytometry” value is listed as “allowed some cells to retain low levels of hCD4”. In addition, in the assay on CD4-HNF/GFP-T ES cells, the “development of GFP^+ CD4^+ cells with either inducer (activin or Wnt)” value was “completely blocked”.

B3: Wnt3a: recombinant Wnt3a (protein, UniProt P56704 19-352, looked up)
Protein Wnt-3a: SYPIWWSLAVGPQYSSLGSQPILCASIPGLVPKQLRFCRNYVEIMPSVAEGIKIGIQECQHQFRGRRWNCTTVHDSLAIFGPVLDKATRESAFVHAIASAGVAFAVTRSCAEGTAAICGCSSRHQGSPGKGWKWGGCSEDIEFGGMVSREFADARENRPDARSAMNRHNNEAGRQAIASHMHLKCKCHGLSGSCEVKTCWWSQPDFRAIGDFLKDKYDSASEMVVEKHRESRGWVETLRPRYTYFKVPTERDLVYYEASPNFCEPNPETGSFGTRDRTCNVSSHGIDGCDLLCCGRGHNARAERRREKCRCVFHWCCYVSCQECTRVYDVHTCK
Regarding B3, the “endodermal gene expression (Alb, Aat, HNF4, Pdxl) by RT-PCR” value in the assay with CD4-HNF/GFP-T ES cells (day 6 EBs plated on matrigel a further 6 days, serum free) is given as “did not express any of these markers”. Besides, the “induction of GFP^+ CD4^+ cells” value in the assay with CD4-HNF/GFP-T ES cells (serum free, Activin A 25 ng/ml or Wnt3a 100 ng/ml) is “initially induce GFP^+ CD4^+ cells”.

(Values after patent US10428308B2, “Mesoderm and definitive endoderm cell populations” (Icahn School of Medicine at Mount Sinai, priority 2005, dated 2019).)
